B1: Hammerhead Ribozyme (parent)
chain: ACCGGAUGUGCUUUCCGGUCUGAUGAGUCCGUGAGGACGAAACAG

For 167 variants, self-cleavage results are on record in the RNAGym collection of RNA variant scans (doi:10.7554/elife.80360).

Variants of B1 are the subject of the series. In words: self-cleavage, relative activity (ratio to wild type); higher = more cleavage; co-transcriptional.
C15G C29A: the self-cleavage came to 0.404.

Consider C15G C29U, for which the self-cleavage was determined as 0.822.

Turning to C15G C29G, the self-cleavage is 0.485.

For the variant C15A G31A, the self-cleavage was 1.05.

As for C15A G31C, the self-cleavage was 0.807.

For C15A G31U, the self-cleavage was determined as 0.999.

As for C15A C29A, the self-cleavage was 0.457.

On to C15A C29U, for which the self-cleavage turned out to be 0.753.

For C15A C29G, the self-cleavage was determined as 0.486.

Turning to C15A G18C, the self-cleavage is 0.364.

With C15A G18U, the self-cleavage is 0.33.

Turning to C15A G18A, the self-cleavage came to 0.323.

Regarding C15G G31C, the self-cleavage was found to be 0.792.

On to C15G G31A, for which the self-cleavage came out at 1.01.

For the variant C15G G31U, the self-cleavage stood at 0.856.

Turning to C15U C29U, the self-cleavage amounted to 0.808.

For the variant C15U C29G, the self-cleavage was determined as 0.802.

As to C15U C29A, the self-cleavage was found to be 0.686.

Take C15A C20A: the self-cleavage stood at 0.316.

On to C15A C20U, for which the self-cleavage turned out to be 0.438.

With C15A C20G, the self-cleavage was 0.289.

For C15U A23U, the self-cleavage was 0.342.

In the case of C15U A23G, the self-cleavage is 0.271.

C15U A23C: the self-cleavage was 0.36.

As to C15A U24G, the self-cleavage was 0.743.

For the variant C15A U24A, the self-cleavage was determined as 0.875.

Turning to C15A U24C, the self-cleavage worked out at 0.892.

Take C15U G17U: the self-cleavage came to 0.476.

For the variant C15U G17C, the self-cleavage is 0.399.

As for C15U G17A, the self-cleavage is 0.556.

C15A U32G: the self-cleavage was found to be 0.769.

For C15A U32A, the self-cleavage turned out to be 0.782.

For the variant C15A U32C, the self-cleavage stood at 0.952.

Consider C15U G35U, for which the self-cleavage worked out at 0.701.

Take C15U G35C: the self-cleavage was 0.601.

As to C15U G35A, the self-cleavage was 0.756.

On to C16A C20G, for which the self-cleavage is 0.316.

For the variant C16A C20U, the self-cleavage is 0.567.

As to C16A C20A, the self-cleavage came out at 0.474.

Regarding C15U G27U, the self-cleavage was found to be 0.579.

For C15U G27C, the self-cleavage stood at 0.749.

Consider C15U G27A, for which the self-cleavage worked out at 0.687.

Turning to C15U U32G, the self-cleavage stood at 0.623.

For the variant C15U U32C, the self-cleavage came out at 0.93.

Turning to C15U U32A, the self-cleavage turned out to be 1.

Regarding C15U G18A, the self-cleavage was found to be 0.554.

As to C15U G18U, the self-cleavage came out at 0.643.

C15U G18C: the self-cleavage came to 0.491.

On to C15G C43U, for which the self-cleavage came to 0.248.

Regarding C15G C43G, the self-cleavage worked out at 0.327.

In the case of C15G C43A, the self-cleavage was found to be 0.262.

Consider C15A G33A, for which the self-cleavage turned out to be 0.921.

For the variant C15A G33C, the self-cleavage worked out at 0.953.

Turning to C15A G33U, the self-cleavage is 0.893.

Turning to C15A A37C, the self-cleavage was 0.403.

Consider C15A A37U, for which the self-cleavage stood at 0.434.

C15A A37G: the self-cleavage worked out at 0.895.

With C15U G25C, the self-cleavage was 0.314.

With C15U G25U, the self-cleavage amounted to 0.314.

Turning to C15U G25A, the self-cleavage came to 0.366.

Regarding C15G A26U, the self-cleavage was determined as 0.516.

Consider C15G A26G, for which the self-cleavage stood at 0.364.

Consider C15G A26C, for which the self-cleavage was determined as 0.321.

On to C15U A44U, for which the self-cleavage is 0.664.

Take C15U A44G: the self-cleavage is 1.21.

In the case of C15U A44C, the self-cleavage turned out to be 0.596.

As to C15A G27C, the self-cleavage came to 0.435.

On to C15A G27A, for which the self-cleavage is 0.589.

For the variant C15A G27U, the self-cleavage was 0.4.

As for C15U U19G, the self-cleavage amounted to 0.327.

With C15U U19C, the self-cleavage was found to be 0.581.

In the case of C15U U19A, the self-cleavage is 0.344.

Take C15A G39C: the self-cleavage amounted to 0.366.

With C15A G39U, the self-cleavage came to 0.353.

In the case of C15A G39A, the self-cleavage stood at 0.337.

Regarding C15U A34G, the self-cleavage was found to be 0.813.

Take C15U A34C: the self-cleavage stood at 0.98.

As to C15U A34U, the self-cleavage worked out at 0.843.

With C15U U24A, the self-cleavage was 0.853.

For the variant C15U U24C, the self-cleavage was 0.812.

In the case of C15U U24G, the self-cleavage stood at 1.35.

For the variant C15U A40G, the self-cleavage came out at 0.269.

As for C15U A40U, the self-cleavage was 0.307.

For C15U A40C, the self-cleavage is 0.385.

Regarding C15U A41U, the self-cleavage was 0.352.

As for C15U A41C, the self-cleavage amounted to 0.368.

Take C15U A41G: the self-cleavage was 0.355.

Regarding C15G G45U, the self-cleavage is 0.421.

For C15G G45A, the self-cleavage came out at 0.446.

As to C15G G45C, the self-cleavage came out at 0.379.

C15A G25A: the self-cleavage was found to be 0.341.

Turning to C15A G25U, the self-cleavage amounted to 0.339.

Regarding C15A G25C, the self-cleavage was found to be 0.381.

As for C16A A44U, the self-cleavage came out at 0.5.

With C16A A44C, the self-cleavage was 0.563.

In the case of C16A A44G, the self-cleavage was found to be 1.35.

As for C15U C38U, the self-cleavage turned out to be 0.82.

Consider C15U C38G, for which the self-cleavage turned out to be 0.689.

C15U C38A: the self-cleavage was determined as 0.677.

As to C16A A37C, the self-cleavage is 0.898.

Turning to C16A A37U, the self-cleavage stood at 0.616.

As to C16A A37G, the self-cleavage came to 0.874.

Turning to C15A A42C, the self-cleavage was found to be 0.291.

C15A A42G: the self-cleavage stood at 0.264.

In the case of C15A A42U, the self-cleavage was found to be 0.282.

Regarding C15G C38U, the self-cleavage amounted to 0.633.

As for C15G C38A, the self-cleavage came out at 0.446.

Consider C15G C38G, for which the self-cleavage is 0.386.

Turning to C16A A23C, the self-cleavage was 0.32.

As for C16A A23G, the self-cleavage turned out to be 0.357.

On to C16A A23U, for which the self-cleavage came to 0.305.

In the case of C16A G31U, the self-cleavage worked out at 1.29.

In the case of C16A G31C, the self-cleavage was 1.04.

For the variant C16A G31A, the self-cleavage is 1.22.

Turning to C15G G18A, the self-cleavage was 0.378.

Regarding C15G G18C, the self-cleavage was determined as 0.353.

As for C15G G18U, the self-cleavage was 0.293.

Take C16A G17A: the self-cleavage was 0.374.

In the case of C16A G17C, the self-cleavage came out at 0.386.

Regarding C16A G17U, the self-cleavage came out at 0.325.

Consider C15G U21A, for which the self-cleavage is 0.424.

On to C15G U21G, for which the self-cleavage was 0.326.

As to C15G U21C, the self-cleavage came to 0.275.

Consider C15A C38G, for which the self-cleavage turned out to be 0.515.

Regarding C15A C38A, the self-cleavage was found to be 0.501.

As for C15A C38U, the self-cleavage turned out to be 0.814.

For the variant C16A A42G, the self-cleavage is 0.296.

In the case of C16A A42U, the self-cleavage turned out to be 0.27.

On to C16A A42C, for which the self-cleavage was 0.399.

Take C16A G27A: the self-cleavage is 0.715.

For the variant C16A G27C, the self-cleavage was 0.571.

In the case of C16A G27U, the self-cleavage is 0.534.

Turning to C15U C16G, the self-cleavage is 0.708.

Take C15U C16A: the self-cleavage is 0.76.

For the variant C15U C16U, the self-cleavage was determined as 0.776.

Take C15A U19C: the self-cleavage was 0.366.

Consider C15A U19G, for which the self-cleavage worked out at 0.34.

In the case of C15A U19A, the self-cleavage stood at 0.365.

For C15G A23C, the self-cleavage was 0.301.

For the variant C15G A23G, the self-cleavage turned out to be 0.32.

As to C15G A23U, the self-cleavage was 0.303.

On to C15G A42C, for which the self-cleavage is 0.277.

Regarding C15G A42U, the self-cleavage came out at 0.328.

Consider C15G A42G, for which the self-cleavage turned out to be 0.276.

Turning to C15A A34G, the self-cleavage amounted to 0.96.

On to C15A A34C, for which the self-cleavage is 1.09.

C15A A34U: the self-cleavage stood at 0.879.

For the variant C15A G22A, the self-cleavage came out at 0.34.

As to C15A G22C, the self-cleavage stood at 0.3.

On to C15A G22U, for which the self-cleavage was determined as 0.303.

Regarding C15U, the self-cleavage was 0.912.

As for C15A, the self-cleavage came to 0.93.

With C15G, the self-cleavage was 0.877.

In the case of C16A G33U, the self-cleavage worked out at 1.4.

For the variant C16A G33A, the self-cleavage is 1.29.

For the variant C16A G33C, the self-cleavage was determined as 1.24.

In the case of C15G G17A, the self-cleavage was 0.322.

As to C15G G17U, the self-cleavage was found to be 0.321.

As for C15G G17C, the self-cleavage is 0.323.

Take C15G A34G: the self-cleavage was determined as 0.833.

Turning to C15G A34U, the self-cleavage amounted to 0.904.

Regarding C15G A34C, the self-cleavage worked out at 0.671.

Take C15G C16G: the self-cleavage worked out at 0.384.

On to C15G C16U, for which the self-cleavage was 0.58.

In the case of C15G C16A, the self-cleavage was found to be 0.367.

For the variant C16A C38U, the self-cleavage turned out to be 0.85.

In the case of C16A C38A, the self-cleavage was 0.631.
